{
  "source": "patent US7855167",
  "key": {"[1]": {"biological_target": "WinZip-B2-DHFR[2:I114A] (murine) (UniProt P00375)", "assay": "cell-based or functional assay"}, "[2]": {"biological_target": "WinZip-B1-DHFR[2:I114A] (murine) (UniProt P00375)", "assay": "cell-based or functional assay"}},
  "data": [
    {"substance": "WinZip-A1-DHFR[1] (from UniProt P00375 1-107) (designed binder)", "values": [
      {"measurement": "Frequency of dominant Pair at P12", "setting": "[1]", "result": 67, "unit": "%"},
      {"measurement": "Selection factor (competition selection)", "setting": "[1]", "result": 87000},
      {"measurement": "frequency of the pair among sequenced colonies at P10 (fraction (3/5))", "setting": "[1]", "result": 0.6},
      {"measurement": "Frequency of dominant Pair at P12", "setting": "[2]", "result": 82, "unit": "%"},
      {"measurement": "Selection factor (competition selection)", "setting": "[2]", "result": "3.2e+06"},
      {"measurement": "frequency of the pair among sequenced colonies at P10", "setting": "[2]", "result": 33, "unit": "%"}
    ]}
  ]
}
